The values below come from US20120015885A1.

The target in this assay is CaMKIV. Briefly: cell-based or functional assay.

B1: tatCN21 (peptide)
peptide: YGRKKRRQRRRKRPPKLGQIGRSKRVVIEDDR
modifications: not checked
The molecule B1 showed a kinase activity in a kinase panel, 5 µM tatCN21, reduction of 35%.
